From patent US20240190986A1 (ZHEJIANG NANOMAB TECHNOLOGY CENTER, published 2024) come the findings set out here.

For one test, the target named is T1, MSLN.Fc protein (human, UniProt Q13421 296-598, limits assumed).
T1 construct: also called MSLN·hFc; MSLN protein; not shown: human IgG Fc fragment
Briefly: ELISA, antigen coated, TG1 supernatant. Further: test concentration or dose not given here. Background: An ELISA detects its analyte on a solid surface through an enzyme-linked reagent.

Another test has as its target T2, MD50 protein.
T2 construct: range 487-580; also called proximal membrane fragment of mesothelin
The test can be described thus: ELISA, antigen coated, TG1 supernatant. Further: test concentration or dose not given here.

T2 sequence (Q13421 495-588): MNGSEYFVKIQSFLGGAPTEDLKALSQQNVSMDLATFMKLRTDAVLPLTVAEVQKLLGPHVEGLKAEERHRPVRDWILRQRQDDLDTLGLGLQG
T1 sequence (Q13421 other isoform, or with tags, fused parts or gaps limits assumed): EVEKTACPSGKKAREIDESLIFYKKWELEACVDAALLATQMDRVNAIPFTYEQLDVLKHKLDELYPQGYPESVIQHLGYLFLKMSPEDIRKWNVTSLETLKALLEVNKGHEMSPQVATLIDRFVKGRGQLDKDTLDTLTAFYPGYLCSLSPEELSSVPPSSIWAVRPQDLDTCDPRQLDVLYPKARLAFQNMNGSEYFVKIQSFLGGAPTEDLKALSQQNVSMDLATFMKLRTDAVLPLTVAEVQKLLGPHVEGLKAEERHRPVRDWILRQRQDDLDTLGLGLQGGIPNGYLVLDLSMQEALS

B1: M210 (VHH)
VHH: QVQLVESGGGLVQPGGSLRLSCAASGITLDNYAIAWFRQAPGKKREGVSCISSNGNTYYQPSVKGRFTIARDNAKNTVYLHMNNLNPEDTAVYYCQVGQFSSSTTPVQAMSVMSLYADWGQGTQVTVSS
notes: Nanoantibody in TG1 supernatant in the screening ELISA; also called clone M210
On to B1, for which the “ELISA (OD450)” value with MSLN.Fc protein is 1.95 OD450; with MD50 protein, 0.823 OD450.

B2: M132 (VHH)
VHH: QVQLVESGGGLVQAGGSLSLSCVASGDAFSFDAMGWYRQFSGKVNERQLVVATSRDGRTAYGERVKGRFTASRDNSKNTLSLVMNNLQVEDTAIYYCAAGDDPKDYYWGQGTQVTVSS
notes: Nanoantibody in TG1 supernatant in the screening ELISA; also called clone M132
Consider B2, for which the “ELISA (OD450)” value in the test with MSLN.Fc protein is 1.34 OD450; with MD50 protein it was 1.17 OD450.

B3: M129 (VHH)
VHH: QVQLVESGGGSAQAGGSLILSCVASANLFTIDALGWYRQAPGPKRELVAAISSGGNKYYADAVKGRFTISRDTLTKTMWLQMNNLKPEDTAMYYCAAEDYGLGQRSWGMGTQVTVSS
notes: Nanoantibody in TG1 supernatant in the screening ELISA; also called clone M129
As for B3, the “ELISA (OD450)” value amounted to 2.4 OD450 with MSLN.Fc protein and 1.66 OD450 with MD50 protein.

B4: M224 (VHH)
VHH: QVQLVESGGGLVQPGGSLRLSCAASGFTFHYYAIGWFRQAPGKEREGVSCISSSGDSTWFSDSVKGRFTVSRDNAKNIVHLQMNNLKPEDTAVYYCAGTTRSGYVCYDAEPYDSWGQGTQVTVSS
notes: Nanoantibody in TG1 supernatant in the screening ELISA; also called clone M224
Consider B4, for which the “ELISA (OD450)” value in the test with MSLN.Fc protein was determined as 1.45 OD450; with MD50 protein, 1.78 OD450.

B5: M118 (VHH)
VHH: EVQLVESGGGLVQAGGSLTLSCAASEHTFTIDAMGYYRQIPGRRNERQLVAAAGRTGTTYYNDAVKDRFTIYRDTSKETIILQMNNLRPEDTTMYYCAVERYSDQSRFFGPGTQVTVSS
notes: Nanoantibody in TG1 supernatant in the screening ELISA; also called clone M118
With B5, the “ELISA (OD450)” value in the test with MSLN.Fc protein stood at 2.05 OD450; with MD50 protein it was 2.06 OD450.

B6: M137 (VHH)
VHH: QVQLVESGGGLVQAGGSLSLSCAASGSLSSINAMGWYRQLPEMRQLVATMGSDGKTYYADSVKGRFTISRDYAKYTVSLQMNNLRPEDTAIYYCAADRFGAPIHDVDYWGKGTLVTVSV
notes: Nanoantibody in TG1 supernatant in the screening ELISA; also called clone M137
In the case of B6, the “ELISA (OD450)” value with MSLN.Fc protein was found to be 1.27 OD450; in the test with MD50 protein it was 2.09 OD450.

B7: M191 (VHH)
VHH: QVQLVESGGGLVQAGGSLRLSCAASASMGSISNMGWYRQAPGKERGNERNLVATIGSDGRTYYADSVKGRFTISRDNVKNTMILQMNFLKPEDTAMYYCAVEDRQRPGTENYYWGQGTQVTVSS
notes: Nanoantibody in TG1 supernatant in the screening ELISA; also called clone M191
Consider B7, for which the figures for the “ELISA (OD450)” value in the test with MSLN.Fc protein and with MD50 protein were 1.69 OD450 and 1.71 OD450, respectively.

B8: M156 (VHH)
VHH: QVQLVESGGGLVQAGGSLRLSCAVSGISFEYYAIGWFRQAPGKEREAVSCTTSGTTSGGGVTDYADSLKGRFTISRDVAKNTVYLQMNNLTPEDTAVYYCAADIHCRGYVLFVPSDFGNWGQGTQVTVSS
notes: Nanoantibody in TG1 supernatant in the screening ELISA; also called clone M156
For B8, the results for the “ELISA (OD450)” value with MSLN.Fc protein and with MD50 protein were 1.67 OD450 and 1.53 OD450, respectively.

B9: M344 (VHH)
VHH: QVQLVESGGGLVQSGGSLRLSCVASGSAFSFDAMGWYRQFSATRRERQLVVATSRDGRTYYADSVKGRFTATRDNSKNSLYLEMNSLKPEDTAIYYCAAGDDPKNYSWGQGTQVTVSS
notes: Nanoantibody in TG1 supernatant in the screening ELISA; also called clone M344
As for B9, the entries for the “ELISA (OD450)” value with MSLN.Fc protein and in the test with MD50 protein were 2.22 OD450 and 2.08 OD450, respectively.

B10: M119 (VHH)
VHH: EVQLVESGGGLVQPGGSLRLSCVASGSDLSFDAMGWYRQFSATVRERQLVVATSRDGRIYYGDSVKGRFTASRDNLKNSVDLEMNNLKPEDTAIYYCAAGDDPKNYDWGPGTQVTVSS
notes: Nanoantibody in TG1 supernatant in the screening ELISA; also called clone M119
Regarding B10, the “ELISA (OD450)” value with MSLN.Fc protein amounted to 2.49 OD450; in the test with MD50 protein, 1.46 OD450.

B11: M169 (VHH)
VHH: EVQLVESGGGTVQPGESLRLSCEASGAVSTINAMGWYRQTPEMRKLVATMGSGGNTYYADSVKGRFTISRDFAGNTVDLQMNDLKPEDTGVYFCAADKFGADIKEVAYWGKGTLVTVSS
notes: Nanoantibody in TG1 supernatant in the screening ELISA; also called clone M169
Turning to B11, the “ELISA (OD450)” value in the test with MSLN.Fc protein came to 1.36 OD450; in the test with MD50 protein, 1.19 OD450.

B12: M047 (VHH)
VHH: QVQLVETGGGSVQAGGSLRLSCAASGSIASIDAMGWYRQVPGKEWERELVATISSSNSDNKYYKDSVKGRFTISTNIAKNTWYLQMNNLKPEDTAMYYCAAEDYDTKDRFWGQGTQVTVSS
notes: Nanoantibody in TG1 supernatant in the screening ELISA; also called clone M047
For B12, the results for the “ELISA (OD450)” value with MSLN.Fc protein and with MD50 protein were 1.98 OD450 and 2.07 OD450, respectively.

B13: M050 (VHH)
VHH: EVQLQESGGGLVQAGGSLRLSCAASGAVSSINAMGWYRQTPEKVRKLVATMGSGGNTYYADSVKGRFTISRDYAKNTVALQMNNLIPEDTAVYYCAADKFGADIHEVDYWGKGTLVTVSS
notes: Nanoantibody in TG1 supernatant in the screening ELISA; also called clone M050
Regarding B13, the entries for the “ELISA (OD450)” value in the test with MSLN.Fc protein and with MD50 protein were 2.72 OD450 and 0.512 OD450, respectively.

B14: M182 (VHH)
VHH: QVQLVESGGGSVQAGGSLTLSCAASGAVSSINAMGWYRQTPEKVRQLVATMGSGGNTYYAASVKGRFTISRDYAKNTVALQMNHLLPEDTAVYYCAADRFGADIREVDYWGKGTQVTVSS
notes: Nanoantibody in TG1 supernatant in the screening ELISA; also called clone M182
As to B14, the “ELISA (OD450)” value with MSLN.Fc protein was 1.03 OD450; with MD50 protein, 1.14 OD450.

B15: M197 (VHH)
VHH: EVQLVESGGGLVQAGGSLRLSCAASGSHFGLNVVGWYRQAPGKQRELVASIGNSGRTTDYADSVKGRFTISKDNAQNTIYLQMNNLKPEDTAMYRCHLRVSVERGYWGQGTQVTVSS
notes: Nanoantibody in TG1 supernatant in the screening ELISA; also called clone M197
As for B15, the “ELISA (OD450)” value in the test with MSLN.Fc protein was 1.21 OD450; with MD50 protein, 1.69 OD450.

B16: M143 (VHH)
VHH: EVQLVESGGGLVQAGGSLRLSCSASEKTFSIKYMGYYRQGPGIERKLVATIDTDGKTWYADSVKGRFTISRENGENEIGLEMNRLKPEDTAMYYCAGETGTYPKPEYWGQGTQVTVSS
notes: Nanoantibody in TG1 supernatant in the screening ELISA; also called clone M143
Take B16: the “ELISA (OD450)” value with MSLN.Fc protein worked out at 1.62 OD450; with MD50 protein, 1.3 OD450.

B17: M004 (VHH)
VHH: EVQLVESGGGLVQAGGSLRLSCAASESISSIAYMGWYRRISEKERNLVATISSTGSTYYADSVKGRFTISRDNAKNTMYLQMNRLKPEDTAIYYCAASNKAYNDYDPDWGQGTQVTVSS
notes: Nanoantibody in TG1 supernatant in the screening ELISA; also called clone M004
Take B17: the entries for the “ELISA (OD450)” value in the test with MSLN.Fc protein and with MD50 protein were 1.1 OD450 and 1.81 OD450, respectively.

B18: M044 (VHH)
VHH: QVQVVESGGGFVQAGGSLRLSCAASTPIISIAYMGWYRQISEKERQLVATINSGGKTYYADSVKGRFTISRDNAKNTLYLQMNMLKPEDTGMYYCAASNKDYNDYDPDWGQGTQVTVSS
notes: Nanoantibody in TG1 supernatant in the screening ELISA; also called clone M044; M044 antibody
For the molecule B18, the “ELISA (OD450)” value came to 2.2 OD450 in the test with MSLN.Fc protein and 2.04 OD450 with MD50 protein.
